From patent US20150241442A1

Target: Leukocyte Function Antigen-1 (LFA-1), on cells (Jurkat T cells, human T cells, PBMC) (human) (UniProt P20701)
Assay: cell-based or functional assay

Sequence of recombinant human ICAM-1-FC (P05362 28-480 limits assumed): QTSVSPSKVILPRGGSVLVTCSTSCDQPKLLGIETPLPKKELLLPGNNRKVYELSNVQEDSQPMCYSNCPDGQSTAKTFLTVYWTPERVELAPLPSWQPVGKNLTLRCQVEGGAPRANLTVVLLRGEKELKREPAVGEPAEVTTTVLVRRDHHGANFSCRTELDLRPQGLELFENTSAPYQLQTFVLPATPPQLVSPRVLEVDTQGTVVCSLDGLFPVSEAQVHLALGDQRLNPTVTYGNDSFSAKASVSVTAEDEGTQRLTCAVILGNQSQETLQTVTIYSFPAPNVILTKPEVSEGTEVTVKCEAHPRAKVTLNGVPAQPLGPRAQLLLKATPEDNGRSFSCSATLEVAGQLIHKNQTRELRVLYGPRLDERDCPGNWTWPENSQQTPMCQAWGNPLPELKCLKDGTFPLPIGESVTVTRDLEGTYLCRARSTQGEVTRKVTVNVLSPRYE
Sequence of Leukocyte Function Antigen-1 (LFA-1), on cells (Jurkat T cells, human T cells, PBMC) (human) (P20701 26-1170, chain 1 of 2): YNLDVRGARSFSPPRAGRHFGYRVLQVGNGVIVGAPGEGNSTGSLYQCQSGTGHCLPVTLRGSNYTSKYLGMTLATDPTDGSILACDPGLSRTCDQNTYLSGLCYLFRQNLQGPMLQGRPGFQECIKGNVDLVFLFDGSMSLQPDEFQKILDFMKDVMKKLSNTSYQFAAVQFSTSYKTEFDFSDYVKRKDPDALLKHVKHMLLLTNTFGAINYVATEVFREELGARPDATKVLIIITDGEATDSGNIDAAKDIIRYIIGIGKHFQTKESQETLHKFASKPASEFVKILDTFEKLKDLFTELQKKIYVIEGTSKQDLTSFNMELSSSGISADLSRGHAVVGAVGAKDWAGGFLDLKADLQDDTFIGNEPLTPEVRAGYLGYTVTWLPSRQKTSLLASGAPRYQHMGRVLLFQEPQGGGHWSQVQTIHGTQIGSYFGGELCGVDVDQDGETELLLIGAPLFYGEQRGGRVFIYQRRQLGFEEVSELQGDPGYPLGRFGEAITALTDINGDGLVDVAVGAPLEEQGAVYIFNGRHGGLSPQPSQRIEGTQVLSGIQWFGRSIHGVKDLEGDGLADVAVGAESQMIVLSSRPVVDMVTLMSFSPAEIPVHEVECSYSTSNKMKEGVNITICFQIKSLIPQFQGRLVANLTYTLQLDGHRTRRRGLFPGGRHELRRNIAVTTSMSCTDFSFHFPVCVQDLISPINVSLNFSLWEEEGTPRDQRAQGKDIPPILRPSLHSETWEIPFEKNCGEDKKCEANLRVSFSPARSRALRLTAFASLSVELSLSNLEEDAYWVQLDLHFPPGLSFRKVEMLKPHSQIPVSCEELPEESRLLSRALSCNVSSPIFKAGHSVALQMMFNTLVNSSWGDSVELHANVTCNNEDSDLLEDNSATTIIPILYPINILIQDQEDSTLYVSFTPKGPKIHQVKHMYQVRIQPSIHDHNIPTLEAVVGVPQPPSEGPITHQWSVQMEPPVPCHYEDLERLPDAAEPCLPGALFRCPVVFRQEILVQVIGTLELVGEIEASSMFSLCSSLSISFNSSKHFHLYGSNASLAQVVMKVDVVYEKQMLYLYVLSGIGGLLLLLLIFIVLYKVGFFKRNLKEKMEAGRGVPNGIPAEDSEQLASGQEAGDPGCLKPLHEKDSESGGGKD
Sequence of Leukocyte Function Antigen-1 (LFA-1), on cells (Jurkat T cells, human T cells, PBMC) (human) (P05107 23-769, chain 2 of 2, further chain): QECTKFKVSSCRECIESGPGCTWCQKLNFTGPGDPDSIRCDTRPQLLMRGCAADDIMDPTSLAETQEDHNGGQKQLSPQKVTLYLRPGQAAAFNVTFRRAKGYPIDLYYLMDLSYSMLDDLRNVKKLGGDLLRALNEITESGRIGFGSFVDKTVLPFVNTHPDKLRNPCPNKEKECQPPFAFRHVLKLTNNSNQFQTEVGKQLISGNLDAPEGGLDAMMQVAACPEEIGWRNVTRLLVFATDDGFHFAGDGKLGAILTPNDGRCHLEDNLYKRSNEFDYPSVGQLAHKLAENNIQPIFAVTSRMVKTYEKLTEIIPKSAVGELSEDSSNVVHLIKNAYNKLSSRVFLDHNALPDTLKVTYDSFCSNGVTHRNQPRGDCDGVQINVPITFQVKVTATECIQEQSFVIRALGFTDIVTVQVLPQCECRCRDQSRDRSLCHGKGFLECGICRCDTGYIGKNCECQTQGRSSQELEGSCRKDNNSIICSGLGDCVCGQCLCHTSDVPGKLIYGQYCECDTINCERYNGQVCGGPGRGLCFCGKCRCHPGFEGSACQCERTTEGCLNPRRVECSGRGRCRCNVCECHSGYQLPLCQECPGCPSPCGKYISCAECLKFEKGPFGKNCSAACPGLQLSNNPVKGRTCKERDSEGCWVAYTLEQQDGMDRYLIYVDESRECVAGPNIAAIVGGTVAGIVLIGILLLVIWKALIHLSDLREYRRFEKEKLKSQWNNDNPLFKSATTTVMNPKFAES

- frequency of the perforin negative population, CD56+CD8med cells: 13.7%
- granzyme-A negative population, CD56+CD8high cells: 4.12%
Substance: recombinant human ICAM-1-FC (from UniProt P05362 28-480) (Fc fusion)
